Measurements from patent US20090253622A1, “USE OF TLR3 AGONISTS FOR THE TREATMENT OF NEURODEGENERATIVE DISORDERS” (Nederlandse Organisatie voor toegepast - …, priority 2006, published 2009).
“Also recorded” adds a separate entry of the source.

Test system: human adult astrocytes
Experiment: cDNA array profiling of cytokine, chemokine and growth factor genes in human adult astrocytes
Assay type: cell-based
Experimental: Adult human astrocytes from post-mortem subcortical white matter samples were isolated and cultured as previously described (Bsibsi et al., J Neuropath Exp Neurol 61:1013-1021 [2002]). […] When indicated astrocytes were stimulated with 50 μg/mL poly I:C (Amersham Pharmacia Biotech, Piscataway, N.J.) or 200 ng/mL LPS (Sigma-Aldrich, Steinheim, Germany) to activate TLR3 and TLR4, respectively. […] It should be noted that contaminants in the commercial LPS preparation could possibly lead to some level of TLR2 activation in addition to TLR4 by the LPS preparation used but not of TLR3. When stimulated with cytokines, astrocytes were supplied with TNF-α, IFN-γ, IL-1β (each at 500 U/mL), IL-4 (at 250 U/mL), IL-6 (at 200 U/mL), IL-12 (at 50 ng/mL), IL-10 (at 20 ng/mL) and TGF-β (at 12.5 ng/mL) (PeproTech, Rocky Hill, N.Y.). […] Endothelial cells (UVEC) were isolated from umbillical cords and cultured on gelatin-coated dishes in M199 supplemented with 20 nM HEPES, 10% human serum, 10% heat-inactivated NBCS, 150 mg/mL ECGF, 5 U/mL heparin, 100 IU/mL penicillin and […] streptomycin.
Analysis of the mRNA profile of astrocytes was performed by hybrid selection of ^32P-labeled cDNA on Clontech human cytokine/chemokine Atlas® arrays as previous described (Meeuwsen et al., Glia 43:243-253 [2003]). Hybridization signals for each of the 268 cytokine, chemokine and growth factor (receptor) genes were calculated as the mean of duplicate measurements, corrected for background intensity and quantified using software provided by the manufacturer. Relative expression was calculated by dividing these hybridization signals by the mean signal for all nine housekeeping reference genes on the corresponding array.
Gene profiling was performed using astrocytes from four different control donors.
Astrocytes were isolated from post mortem human brain tissue samples and cultured under conditions as described elsewhere in this application. One part of the culture was stimulated with 50 μg/ml stathmin, the second with 50 μg/ml poly I:C and a third was left untreated to served as a reference control. Following another 48 h RNA was isolated from each culture and ^32P-labeled cDNA was prepared by reverse transcription. Subsequent hybrid selection of these ^32P-labeled cDNA samples was performed on Clontech Atlas® arrays containing selective probes for 268 cytokines, chemokines and growth factors, and various receptors for these mediators. All hybridization signals were calculated as the mean of duplicate measurements, corrected for background intensity and quantified using software provided by the manufacturer. Relative signal strength was next calculated by dividing these averaged hybridization signals by the mean signal for all nine housekeeping reference genes that were also present on each array as a reference.

B1: stathmin: cytosolic phosphoprotein of 149 amino acids (SEQ ID NO: 1); purified recombinant human stathmin from a commercial source (protein)
chain: MASSDIQVKELEKRASGQAFELILSPRSKESVPEFPLSPPKKKDFSLEEIQKKLEAAEERRKSHEAEVLKQLAEKREHEKEVLQKAIEENNNFSKMAEEKITHKMEANKENREAQMAAKLERLREKDKHIEEVRKNKESKDPADETEAD
modifications: Human; (44)..(138) Stathmin-like alpha helix domain
notes: purified recombinant human stathmin from a commercial source
B1 was tested, and the “change in expression of genes encoding immune mediators and growth factors” value (50 μg/ml, 48 h) was “comprehensive and marked change in expression” and the stathmin-induced mediators (astrocytes (TLR3 on the cell surface), qualitative summary) was “CNTF, LIF; also recorded: TSG-6, IL-9, IL10, IL-11, IL-5; also recorded: VEGF, VEGF-C, CXCL8; also recorded: CCL2, CCL3, CXCL9”.
